Experimental findings from patent US20250066460A1 are described below.

This assay concerns the target complement C1s (UniProt P09871). The assay is described as follows: cell-based or functional assay.
UniProt P09871, sequence (P09871 16-688 limits assumed): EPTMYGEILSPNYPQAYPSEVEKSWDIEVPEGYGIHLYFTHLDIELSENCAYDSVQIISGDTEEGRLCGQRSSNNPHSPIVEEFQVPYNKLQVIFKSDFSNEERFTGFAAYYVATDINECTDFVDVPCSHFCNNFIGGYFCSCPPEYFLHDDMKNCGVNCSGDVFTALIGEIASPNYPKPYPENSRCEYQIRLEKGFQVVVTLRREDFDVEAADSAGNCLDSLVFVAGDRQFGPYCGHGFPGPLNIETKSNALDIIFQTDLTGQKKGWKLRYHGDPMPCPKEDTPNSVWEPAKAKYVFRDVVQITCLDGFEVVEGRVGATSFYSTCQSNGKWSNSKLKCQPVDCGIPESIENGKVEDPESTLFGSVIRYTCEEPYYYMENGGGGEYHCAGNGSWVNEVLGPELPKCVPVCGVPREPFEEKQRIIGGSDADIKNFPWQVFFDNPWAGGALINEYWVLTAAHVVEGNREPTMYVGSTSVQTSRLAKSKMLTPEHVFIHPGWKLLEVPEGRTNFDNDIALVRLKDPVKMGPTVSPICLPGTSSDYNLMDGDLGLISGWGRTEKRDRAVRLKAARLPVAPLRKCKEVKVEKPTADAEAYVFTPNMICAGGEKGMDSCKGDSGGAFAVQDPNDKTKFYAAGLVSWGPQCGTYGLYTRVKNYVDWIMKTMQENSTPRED

Substance TNT009 (antibody) yielded a concentration blocking C3 fixation on sNF02.2 Schwann cells opsonized with MMN-patient serum (flow cytometry) of 53 µg/mL and a lowest concentration blocking C3 deposition on fixed iPSC-derived motor neurons (titration 3-200 µg/mL) of 12 µg/mL.
